From article doi:10.1101/2023.02.03.526835 (bioRxiv, 2023)

Target: the molecule itself
Test: cryo-EM structure

B1: Lcb2 (enzyme, S. cerevisiae)
chain: MSTPANYTRVPLCEPEELPDDIQKENEYGTLDSPGHLYQVKSRHGKPLPEPVVDTPPYYISLLTYLNYLILIILGHVHDFLGMTFQKNKHLDLLEHDGLAPWFSNFESFYVRRIKMRIDDCFSRPTTGVPGRFIRCIDRISHNINEYFTYSGAVYPCMNLSSYNYLGFAQSKGQCTDAALESVDKYSIQSGGPRAQIGTTDLHIKAEKLVARFIGKEDALVFSMGYGTNANLFNAFLDKKCLVISDELNHTSIRTGVRLSGAAVRTFKHGDMVGLEKLIREQIVLGQPKTNRPWKKILICAEGLFSMEGTLCNLPKLVELKKKYKCYLFIDEAHSIGAMGPTGRGVCEIFGVDPKDVDILMGTFTKSFGAAGGYIAADQWIIDRLRLDLTTVSYSESMPAPVLAQTISSLQTISGEICPGQGTERLQRIAFNSRYLRLALQRLGFIVYGVADSPVIPLLLYCPSKMPAFSRMMLQRRIAVVVVAYPATPLIESRVRFCMSASLTKEDIDYLLRHVSEVGDKLNLKSNSGKSSYDGKRQRWDIEEVIRRTPEDCKDDKYFVN
modifications: pyridoxal 5'-phosphate (PLP) as internal aldimine with K366
- binding result: binds
